The values below come from publication PMC5109244.

This assay has as its target T1, short mouse DNGR-1 ECD (extracellular domain of the short isoform of mouse DNGR-1) (mouse), Q8BRU4.
T1 chain: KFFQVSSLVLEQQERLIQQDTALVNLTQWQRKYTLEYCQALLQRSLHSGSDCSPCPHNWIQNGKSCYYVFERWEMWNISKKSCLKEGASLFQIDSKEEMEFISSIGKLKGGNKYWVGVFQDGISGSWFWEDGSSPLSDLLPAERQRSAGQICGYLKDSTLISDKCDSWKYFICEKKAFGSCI
The experiment in a line: non-reducing SDS-PAGE and Western blot; supernatants of 293F cells with FLAG-tagged ECD proteins, Laemmli buffer without reducing agent, HRP-conjugated anti-FLAG detection. As to conditions: remark: other sources report otherwise. (In western blotting, separated proteins are transferred to a membrane and probed.)

B1: short mouse DNGR-1 ECD (extracellular domain of the short isoform of mouse DNGR-1), Q8BRU4 57-238 (domain or fragment)
chain: T1 chain
modifications: here or on the partner: glycosylated (mobility augmented by PNGase F); glycosylated (mobility augmented by PNGase F)
In general, stoichiometry N refers to the number of molecules, sites or subunits per partner or assembly. B1: the stoichiometry N turned out to be 2.
